Test results taken from the supplement of paper PMC10065799, “High-throughput profiling of sequence recognition by tyrosine kinases and SH2 domains using bacterial peptide display” (eLife, 2023).

How the values were obtained:
SHP2-C SH2 = assay: SH2 binding enrichment of the phosphorylated peptide, bacterial display (enrichment ratio); higher = better substrate or ligand; peptides without Tyr show the background
c-Src SH2 = assay: as above
Grb2 SH2 = Grb2 SH2 (UniProt P62993); assay: as above
FGFR3 = FGFR3 (UniProt P22607); assay: phosphorylation enrichment, bacterial display (enrichment ratio); higher = better substrate or ligand; peptides without Tyr show the background
EPHB1 = EPHB1 (UniProt P54762); assay: as above
Chain of EPHB1 (P54762 whole entry, looked up): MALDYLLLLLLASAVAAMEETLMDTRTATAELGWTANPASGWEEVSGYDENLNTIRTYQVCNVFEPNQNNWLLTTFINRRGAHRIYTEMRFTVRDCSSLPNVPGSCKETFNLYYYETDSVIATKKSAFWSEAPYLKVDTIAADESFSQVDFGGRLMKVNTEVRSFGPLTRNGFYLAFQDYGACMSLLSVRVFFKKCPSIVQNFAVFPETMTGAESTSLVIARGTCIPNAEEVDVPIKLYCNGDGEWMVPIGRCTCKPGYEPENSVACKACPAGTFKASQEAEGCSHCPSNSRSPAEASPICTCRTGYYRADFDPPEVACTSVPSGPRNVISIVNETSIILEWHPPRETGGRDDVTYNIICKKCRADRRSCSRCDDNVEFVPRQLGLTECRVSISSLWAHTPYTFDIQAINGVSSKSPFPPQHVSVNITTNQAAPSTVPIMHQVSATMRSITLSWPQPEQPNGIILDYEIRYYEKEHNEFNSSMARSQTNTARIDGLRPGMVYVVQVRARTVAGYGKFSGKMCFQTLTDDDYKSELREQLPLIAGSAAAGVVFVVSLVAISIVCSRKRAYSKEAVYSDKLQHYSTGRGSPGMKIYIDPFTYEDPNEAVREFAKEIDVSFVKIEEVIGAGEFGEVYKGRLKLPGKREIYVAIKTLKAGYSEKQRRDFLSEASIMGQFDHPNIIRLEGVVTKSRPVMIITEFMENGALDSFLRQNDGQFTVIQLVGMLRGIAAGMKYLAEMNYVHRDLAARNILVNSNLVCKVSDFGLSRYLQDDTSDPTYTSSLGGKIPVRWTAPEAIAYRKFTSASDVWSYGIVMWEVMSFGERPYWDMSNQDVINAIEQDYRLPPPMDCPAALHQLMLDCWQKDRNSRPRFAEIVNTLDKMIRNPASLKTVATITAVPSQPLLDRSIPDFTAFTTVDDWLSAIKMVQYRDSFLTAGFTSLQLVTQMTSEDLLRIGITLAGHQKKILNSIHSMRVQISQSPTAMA

c-Src = assay: as above
FGFR1 = FGFR1 (UniProt P11362); assay: as above
AncSZ = assay: as above
Fyn = Fyn (UniProt P06241); assay: as above
MERTK = MERTK (UniProt Q12866); assay: as above
Chain of MERTK (Q12866 whole entry, looked up): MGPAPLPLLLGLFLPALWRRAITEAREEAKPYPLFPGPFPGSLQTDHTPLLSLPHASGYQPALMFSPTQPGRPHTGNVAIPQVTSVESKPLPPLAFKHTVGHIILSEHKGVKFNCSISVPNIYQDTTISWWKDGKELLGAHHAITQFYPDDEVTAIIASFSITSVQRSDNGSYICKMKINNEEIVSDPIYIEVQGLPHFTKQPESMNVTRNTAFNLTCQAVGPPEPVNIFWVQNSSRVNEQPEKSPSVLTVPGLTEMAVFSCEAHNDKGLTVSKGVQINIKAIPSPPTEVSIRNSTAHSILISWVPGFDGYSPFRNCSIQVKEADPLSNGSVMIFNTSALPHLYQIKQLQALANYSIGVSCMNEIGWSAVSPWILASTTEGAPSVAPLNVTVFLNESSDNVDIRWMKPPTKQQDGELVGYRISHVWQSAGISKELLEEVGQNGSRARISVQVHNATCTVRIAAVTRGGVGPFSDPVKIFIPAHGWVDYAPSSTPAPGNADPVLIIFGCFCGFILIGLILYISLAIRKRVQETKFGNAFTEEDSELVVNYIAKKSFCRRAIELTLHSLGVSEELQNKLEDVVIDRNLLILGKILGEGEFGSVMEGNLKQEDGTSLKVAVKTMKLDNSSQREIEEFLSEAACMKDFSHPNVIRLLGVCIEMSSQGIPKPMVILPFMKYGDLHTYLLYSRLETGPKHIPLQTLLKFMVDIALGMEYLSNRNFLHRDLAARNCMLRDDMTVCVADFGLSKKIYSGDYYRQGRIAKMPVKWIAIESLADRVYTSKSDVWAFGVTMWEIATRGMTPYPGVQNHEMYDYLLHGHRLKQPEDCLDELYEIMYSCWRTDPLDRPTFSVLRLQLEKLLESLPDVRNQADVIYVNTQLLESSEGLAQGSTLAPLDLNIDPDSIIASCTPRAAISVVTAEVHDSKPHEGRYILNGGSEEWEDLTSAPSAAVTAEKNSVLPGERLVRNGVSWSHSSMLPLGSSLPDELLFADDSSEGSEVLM

c-Abl (mouse) = assay: as above
Hck = Hck (UniProt P08631); assay: as above
Chain of Hck (P08631 whole entry, looked up): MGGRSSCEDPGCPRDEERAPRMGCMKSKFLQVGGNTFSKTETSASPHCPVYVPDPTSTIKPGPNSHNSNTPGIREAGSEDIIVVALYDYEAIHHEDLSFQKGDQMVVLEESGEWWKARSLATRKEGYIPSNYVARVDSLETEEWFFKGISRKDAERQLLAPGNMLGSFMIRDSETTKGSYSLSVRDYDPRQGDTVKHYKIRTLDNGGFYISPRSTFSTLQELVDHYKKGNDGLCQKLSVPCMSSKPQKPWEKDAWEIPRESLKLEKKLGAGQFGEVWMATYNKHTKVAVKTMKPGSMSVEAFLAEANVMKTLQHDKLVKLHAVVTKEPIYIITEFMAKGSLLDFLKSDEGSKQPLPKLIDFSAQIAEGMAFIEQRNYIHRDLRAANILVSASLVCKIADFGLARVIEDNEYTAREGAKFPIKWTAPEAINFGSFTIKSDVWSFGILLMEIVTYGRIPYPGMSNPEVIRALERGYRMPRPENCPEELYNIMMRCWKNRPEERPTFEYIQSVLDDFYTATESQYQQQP

Fer (mouse) = assay: as above
Fes = Fes (UniProt P07332); assay: as above
Chain of Fes (P07332 whole entry, looked up): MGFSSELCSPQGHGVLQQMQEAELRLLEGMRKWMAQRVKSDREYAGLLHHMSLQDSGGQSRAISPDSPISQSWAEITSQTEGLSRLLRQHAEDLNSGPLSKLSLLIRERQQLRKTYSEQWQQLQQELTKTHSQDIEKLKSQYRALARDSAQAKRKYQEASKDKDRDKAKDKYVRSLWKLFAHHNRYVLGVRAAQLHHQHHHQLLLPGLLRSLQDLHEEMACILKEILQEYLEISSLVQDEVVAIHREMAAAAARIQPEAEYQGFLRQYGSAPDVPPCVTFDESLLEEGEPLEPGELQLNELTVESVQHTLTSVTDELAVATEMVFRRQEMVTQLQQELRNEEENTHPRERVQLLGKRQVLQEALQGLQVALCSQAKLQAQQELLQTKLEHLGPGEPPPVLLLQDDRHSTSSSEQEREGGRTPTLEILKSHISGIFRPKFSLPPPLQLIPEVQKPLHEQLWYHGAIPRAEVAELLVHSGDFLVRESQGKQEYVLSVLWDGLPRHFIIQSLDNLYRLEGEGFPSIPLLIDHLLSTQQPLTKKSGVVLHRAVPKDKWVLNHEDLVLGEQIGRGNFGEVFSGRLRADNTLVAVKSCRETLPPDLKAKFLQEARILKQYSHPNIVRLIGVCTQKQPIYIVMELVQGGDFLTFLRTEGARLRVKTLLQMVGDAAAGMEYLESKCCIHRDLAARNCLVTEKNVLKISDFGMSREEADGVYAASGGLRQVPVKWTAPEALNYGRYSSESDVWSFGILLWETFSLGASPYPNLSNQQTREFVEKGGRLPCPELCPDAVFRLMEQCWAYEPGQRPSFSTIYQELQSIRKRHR

Jak2 = Jak2 (UniProt O60674); assay: as above
EPHB2 = EPHB2 (UniProt P29323); assay: as above
Chain of EPHB2 (P29323 whole entry, looked up, the tested form may be a part): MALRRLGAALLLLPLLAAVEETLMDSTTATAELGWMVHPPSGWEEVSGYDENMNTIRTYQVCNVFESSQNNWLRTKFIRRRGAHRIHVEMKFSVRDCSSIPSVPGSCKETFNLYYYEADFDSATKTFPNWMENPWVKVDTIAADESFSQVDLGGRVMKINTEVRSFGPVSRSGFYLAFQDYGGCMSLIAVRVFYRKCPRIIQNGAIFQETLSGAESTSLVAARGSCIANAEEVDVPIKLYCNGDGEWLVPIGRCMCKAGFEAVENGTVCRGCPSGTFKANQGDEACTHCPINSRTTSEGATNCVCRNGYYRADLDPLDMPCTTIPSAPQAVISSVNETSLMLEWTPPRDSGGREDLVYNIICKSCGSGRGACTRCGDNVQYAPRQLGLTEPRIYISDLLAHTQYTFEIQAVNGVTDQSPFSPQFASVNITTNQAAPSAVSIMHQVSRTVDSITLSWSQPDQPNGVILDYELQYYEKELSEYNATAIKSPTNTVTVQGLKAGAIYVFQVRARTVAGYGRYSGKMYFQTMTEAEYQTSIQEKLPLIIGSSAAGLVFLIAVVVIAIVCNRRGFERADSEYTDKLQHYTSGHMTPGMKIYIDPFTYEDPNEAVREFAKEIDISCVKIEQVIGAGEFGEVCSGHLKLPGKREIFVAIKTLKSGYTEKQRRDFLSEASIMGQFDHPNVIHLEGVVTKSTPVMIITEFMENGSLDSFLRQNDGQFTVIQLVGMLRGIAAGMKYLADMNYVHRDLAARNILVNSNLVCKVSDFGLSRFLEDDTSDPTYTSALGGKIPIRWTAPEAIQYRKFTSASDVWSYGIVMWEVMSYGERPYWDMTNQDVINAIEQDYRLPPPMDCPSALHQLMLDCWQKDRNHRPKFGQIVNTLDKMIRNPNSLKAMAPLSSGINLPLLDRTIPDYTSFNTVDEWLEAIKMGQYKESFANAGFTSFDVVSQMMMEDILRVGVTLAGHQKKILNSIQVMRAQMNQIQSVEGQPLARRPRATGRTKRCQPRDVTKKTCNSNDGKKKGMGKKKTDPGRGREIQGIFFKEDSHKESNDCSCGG
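For SH2 binding enrichment of the phosphorylated peptide, bacterial display in this document: peptide library displayed on the E. coli surface as eCPX fusions, selected cells deep-sequenced, score is each peptide's frequency after selection divided by its frequency in the input.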
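For phosphorylation enrichment, bacterial display in this document: 11-residue human phosphosite peptides and single-mutation variants displayed on the E. coli surface, counted by deep sequencing, each peptide's frequency after selection divided by its frequency in the unselected input library; frequency after pTyr selection over input frequency; kinase dosed for 20-30% of maximal phosphorylation in three min.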

Chain of Grb2 SH2 (P62993 whole entry, looked up): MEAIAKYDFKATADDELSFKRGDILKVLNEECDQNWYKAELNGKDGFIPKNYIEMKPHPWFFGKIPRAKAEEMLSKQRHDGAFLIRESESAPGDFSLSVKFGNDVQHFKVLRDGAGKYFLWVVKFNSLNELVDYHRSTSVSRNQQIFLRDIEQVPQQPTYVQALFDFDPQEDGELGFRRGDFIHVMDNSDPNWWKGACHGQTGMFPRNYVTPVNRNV

Row | Sequence | SH2 binding enrichment (SHP2-C SH2) | SH2 binding enrichment (c-Src SH2) | SH2 binding enrichment (Grb2 SH2) | phosphorylation enrichment (FGFR3) | phosphorylation enrichment (EPHB1) | phosphorylation enrichment (c-Src) | phosphorylation enrichment (FGFR1) | phosphorylation enrichment (AncSZ) | phosphorylation enrichment (Fyn) | phosphorylation enrichment (MERTK) | phosphorylation enrichment (c-Abl (mouse)) | phosphorylation enrichment (Hck) | phosphorylation enrichment (Fer (mouse)) | phosphorylation enrichment (Fes) | phosphorylation enrichment (Jak2) | phosphorylation enrichment (EPHB2)
1 | PFFASYPPSPD [GDAP2_Y491_T489A_YF] | 0.847 | 0.658 | 1.01 | 0.839 | 0.99 | 0.488 | 0.747 | 1.03 | 0.784 | 0.769 | 0.859 | 1.11 | 0.435 | 1.23 | 1.02 | 0.865
2 | PFRKLYESVKK [MKI67_Y241_W238R] | 0.711 | 0.714 | 0.973 | 0.685 | 0.516 | 0.491 | 2.28 | 0.931 | 0.454 | 0.612 | 1 | 0.563 | 0.458 | 0.695 | 1.16 | 0.368
3 | PFTRNYFVRAV [CYBA_Y87_YF] | 0.327 | 0.519 | 0.868 | 0.739 | 0.413 | 0.419 | 0.788 | 1.04 | 0.533 | 0.544 | 0.868 | 0.595 | 0.408 | 0.967 | 0.93 | 0.708
4 | PGPQSYPTVTG [PAX5_Y299_I301T] | 0.824 | 0.513 | 0.787 | 0.539 | 0.79 | 0.594 | 0.811 | 0.819 | 0.828 | 0.707 | 1.06 | 0.582 | 0.63 | 0.888 | 0.892 | 0.725
5 | PHMQTYEVDLN [SDHB_Y61] | 0.716 | 0.874 | 1.01 | 0.755 | 0.978 | 1.04 | 0.61 | 1.17 | 0.906 | 0.51 | 0.649 | 0.804 | 1.02 | 1.29 | 1.12 | 0.797
6 | PIFEGYALPHA [ACTA1_Y171_YF] | 0.769 | 4.62 | 0.877 | 0.665 | 0.546 | 0.562 | 0.536 | 0.82 | 0.536 | 0.807 | 2.44 | 0.541 | 0.49 | 0.778 | 0.717 | 0.574
7 | PINEPYGDDMD [JUP_Y693] | 1.05 | 0.601 | 1.04 | 1.34 | 0.944 | 0.858 | 1.15 | 2.44 | 1.03 | 0.919 | 1.25 | 0.981 | 0.837 | 1.75 | 1.89 | 0.985
8 | PKSLFYLLLKL [TRPC6_Y775] | 1.31 | 0.747 | 0.998 | 1.48 | 1.04 | 1.74 | 1.12 | 2.5 | 0.31 | 1.54 | 2.62 | 0.716 | 1.51 | 2.82 | 4.8 | 1.89
9 | PLDGEYFTLQV [TP53_Y327_I332V] | 0.598 | 0.483 | 0.688 | 10.6 | 2.21 | 2.09 | 12.8 | 3.87 | 5.07 | 0.494 | 1.02 | 2.74 | 0.842 | 1.94 | 2.16 | 1.44
10 | PLFRVYGLESL [INSR_Y94_L89P] | 0.663 | 0.345 | 0.851 | 0.686 | 0.803 | 0.864 | 0.58 | 1.2 | 1.03 | 0.508 | 1.15 | 0.574 | 0.571 | 1.43 | 1.43 | 0.673
11 | PLLEYYRDIFT [CDAN1_Y713] | 0.777 | 1.04 | 1.16 | 5.58 | 1.38 | 0.789 | 6.73 | 1.7 | 0.704 | 0.782 | 1.45 | 0.846 | 1.02 | 1.81 | 4.74 | 1.25
12 | PLQKIYNFNVL [SLC4A1_Y553_T552I_YF] | 1.08 | 0.906 | 1.29 | 0.684 | 0.743 | 2.63 | 0.793 | 0.985 | 1.43 | 0.811 | 1.06 | 1.12 | 0.795 | 1.44 | 1.19 | 0.84
13 | PLQKTYNHNVL [SLC4A1_Y553_Y555H] | 0.607 | 0.659 | 0.908 | 0.524 | 0.576 | 0.686 | 0.479 | 0.657 | 0.531 | 0.744 | 0.833 | 0.291 | 0.659 | 0.946 | 0.892 | 0.591
14 | PLQSEYSSIST [ITGB4_Y1760_T1764S] | 0.826 | 1.17 | 0.844 | 0.925 | 1.81 | 1.3 | 0.944 | 2.59 | 1.27 | 0.582 | 1.49 | 1.93 | 1.08 | 1.28 | 0.822 | 2.28
15 | PMFTKYGNSLL [RPGRIP1L_Y196] | 0.679 | 0.749 | 0.952 | 0.912 | 1.07 | 0.951 | 0.645 | 1.45 | 0.558 | 0.708 | 1.49 | 0.636 | 1.44 | 1.73 | 1.44 | 0.643
16 | PNATLYKMTSI [SERPINA7_Y40_S43T] | 0.684 | 0.272 | 0.768 | 0.668 | 0.642 | 1.04 | 0.86 | 0.883 | 0.604 | 0.918 | 1.3 | 0.636 | 0.477 | 1.5 | 1.16 | 1.02
17 | PNEAVYTKMMT [G6PD_Y401] | 0.811 | 2 | 0.899 | 0.571 | 0.506 | 4.58 | 0.555 | 1 | 2.31 | 1.48 | 0.674 | 1.96 | 6.07 | 0.972 | 0.838 | 0.479

Row | Sequence | SH2 binding enrichment (SHP2-C SH2) | SH2 binding enrichment (c-Src SH2) | SH2 binding enrichment (Grb2 SH2) | phosphorylation enrichment (FGFR3) | phosphorylation enrichment (EPHB1) | phosphorylation enrichment (c-Src) | phosphorylation enrichment (FGFR1) | phosphorylation enrichment (AncSZ) | phosphorylation enrichment (Fyn) | phosphorylation enrichment (MERTK) | phosphorylation enrichment (c-Abl (mouse)) | phosphorylation enrichment (Hck) | phosphorylation enrichment (Fer (mouse)) | phosphorylation enrichment (Fes) | phosphorylation enrichment (Jak2) | phosphorylation enrichment (EPHB2)
18 | PNRILYGDFQQ [MYH7_Y715_R719Q] | 0.935 | 0.503 | 0.823 | 0.475 | 0.504 | 3.04 | 0.422 | 0.601 | 4.31 | 0.408 | 0.549 | 1.42 | 0.375 | 0.798 | 0.861 | 0.516
19 | PQGVSYIYTID [DCX_Y103_R102S] | 13 | 0.644 | 1.05 | 1.64 | 0.985 | 6.93 | 1.06 | 1.62 | 10.6 | 3.15 | 1.32 | 5.22 | 0.728 | 1.79 | 1.55 | 0.856
20 | PRSRSYSSTSI [REPS2_Y462] | 0.423 | 0.388 | 0.893 | 0.611 | 0.538 | 1.33 | 0.743 | 1.11 | 1.06 | 1 | 0.932 | 0.468 | 0.57 | 1.71 | 1.2 | 0.523
21 | PSFSEYASVQV [SIRPA_Y496] | 0.952 | 0.705 | 0.997 | 1.05 | 6.25 | 2.35 | 1.05 | 1.11 | 2.49 | 0.474 | 4.02 | 1.93 | 3.49 | 0.801 | 1.02 | 8.42
22 | PSGPMYRGAVP [ASAH1_Y43_T42M] | 0.842 | 0.472 | 0.926 | 0.573 | 0.34 | 0.334 | 0.392 | 0.617 | 0.467 | 0.483 | 0.68 | 0.48 | 0.347 | 1.21 | 0.67 | 0.539
23 | PSNTEYPGPHS [TP63_Y171_D170E] | 0.362 | 0.373 | 1.48 | 0.497 | 0.774 | 0.41 | 0.56 | 0.806 | 0.507 | 0.383 | 0.696 | 0.477 | 0.498 | 0.832 | 0.568 | 0.671
24 | PSTFRYERGSR [INPPL1_Y663_P659S_YF] | 0.879 | 0.47 | 0.811 | 0.429 | 0.368 | 0.491 | 0.411 | 0.51 | 0.408 | 0.366 | 0.628 | 0.345 | 0.352 | 0.484 | 0.459 | 0.47
25 | PTTKTYFLHFD [HBA1_Y43_P45L] | 1.35 | 0.985 | 1.36 | 2.62 | 1.34 | 0.695 | 3.23 | 1.66 | 0.813 | 0.844 | 1.51 | 0.816 | 0.532 | 1.79 | 1.98 | 1.14
26 | PTTKTYFPQFD [HBA1_Y43_H46Q] | 1.11 | 0.59 | 0.772 | 0.636 | 0.672 | 0.74 | 0.576 | 0.83 | 0.617 | 0.428 | 0.597 | 0.611 | 0.499 | 0.922 | 0.737 | 0.58
27 | PTTKTYFPRFD [HBA1_Y43_H46R] | 0.91 | 0.446 | 0.819 | 0.432 | 0.493 | 0.421 | 0.455 | 0.569 | 0.319 | 0.373 | 0.609 | 0.38 | 0.505 | 0.772 | 0.731 | 0.421
28 | PVDGEYFTLQI [TP53_Y327_L323V] | 0.744 | 0.512 | 0.785 | 9.07 | 1.16 | 3.58 | 11.4 | 4.07 | 4.09 | 0.623 | 1.38 | 2.38 | 1.31 | 1.86 | 3.14 | 1.36
29 | PVDTYYDSTRG [DYNC2H1_Y2231_M2227V] | 0.667 | 0.835 | 1.08 | 1.58 | 0.934 | 0.955 | 2.01 | 1.18 | 1.09 | 0.554 | 0.953 | 1.31 | 0.713 | 1.12 | 0.909 | 0.608
30 | PVDVAYRHGYF [PLEC_Y2967_R2969H] | 0.701 | 0.611 | 1.21 | 1.1 | 0.752 | 0.905 | 0.863 | 1.71 | 0.536 | 0.687 | 1.4 | 0.695 | 0.543 | 1.05 | 1.9 | 1.48
31 | PVQAAYKKVVA [HBB_Y131_Q132K] | 0.613 | 0.524 | 0.834 | 0.485 | 0.545 | 0.687 | 0.534 | 0.645 | 0.506 | 0.578 | 0.73 | 0.479 | 0.226 | 0.762 | 0.486 | 0.278
32 | PVRIAYDRPRG [SUGP2_Y985] | 0.764 | 0.623 | 0.641 | 0.653 | 0.464 | 0.609 | 0.384 | 0.923 | 0.486 | 0.591 | 0.671 | 0.426 | 0.746 | 0.737 | 1.44 | 0.691
33 | PYIDSYEKDVA [PGM1_Y521_L516P] | 0.724 | 0.647 | 0.802 | 1.08 | 0.907 | 0.703 | 0.907 | 1.66 | 0.684 | 0.763 | 0.961 | 0.725 | 0.852 | 1.48 | 1.61 | 0.857
